Source: article PMC12173945, “Import mechanism of peroxisomal proteins with an N-terminal signal sequence” (Nature Cell Biology, 2025)

How the values were obtained:
PEX5–GFP in YG hydrogel = assay: YG hydrogel release assay, PEX5–GFP (Fig. 6d); format: biochemical; conditions: fourfold excess of PEX39
Protocol: (§1) YG hydrogels were prepared in a glass-bottomed plate as described earlier and equilibrated for 3 h at RT in Assay Buffer containing 0.5 µM PEX7–GFP or PEX5–GFP with or without PTS2 peptide and receptor at the concentrations specified in the text. Following the initial incubation, the hydrogels were imaged on a Nikon A1R point-scanning confocal system, as described earlier, with a Nikon ×10 0.45 NA Plan Apo air objective, a pinhole dilated to 1.4 Airy units and a pixel size of 2 µm. A solution of purified PEX39 was then spiked into each reaction and the hydrogels imaged every 2 min for an additional 1 h at RT.
(§2) For the PEX7-release assay from YG hydrogels, the total fluorescence within a 30-µm-wide band in the gel extending for 150 µm from the gel edge into the gel was measured at each time point. This distance was sufficient to fully encompass the permeation front of each fluorescent species. The resulting values were then normalized to the total fluorescence inside the gel at the start of the experiment and plotted as a function of time.

PEX7–GFP in YG hydrogel = assay: YG hydrogel release assay, PEX7–GFP (Fig. 6a-c,e); format: biochemical, yeast
Protocol: as §1, §2

B1: PEX39 (WT): PEX39 from S. cerevisiae (GenBank accession no. NP_012546.4) (protein)
chain: MAAGGELSYEELLDHILNNKPIPNIVEVPNVTLDEGLASTPSLRPRPRPWEGQLQHQSHQGSLDKPNISLDIDQESLEGMTSLTRLSECYDIQSKLQINDSDNDNDDNNNDNNKGDGNDDDNNTVTANPTAR
modifications: left off: GST, N-terminal, cleaved
Extraction of PEX5–GFP from YG hydrogel (PEX5–GFP in YG hydrogel): unable to extract PEX5–GFP from the hydrogel | Extraction of PEX7–GFP from YG hydrogel (PEX7–GFP in YG hydrogel; PEX39 or mutants added to preloaded hydrogel): rapidly depleted PEX7–GFP from the hydrogel in a dose-dependent manner | Extraction of PEX7–GFP from YG hydrogel, PEX5-21 complex (PEX7–GFP in YG hydrogel; with PTS2 peptide and PEX5-21): unable to efficiently extract PEX7–GFP | Extraction of PEX7–GFP from YG hydrogel, PEX5S (PEX7–GFP in YG hydrogel; with PTS2 peptide and PEX5S): readily extracted
